Measured values: patent publication US20130244255A1, “ANTIBODIES DIRECTED TO GPNMB AND USES THEREOF” (priority 2006, published 2013)

T1: GPNMB (Homo sapiens, UniProt Q14956)
T1 construct: we cloned the human CG56972 extracellular domain (ECD; aa 23-480); made in house; host or cells: HEK 293 cells
T1 sequence (Q14956 23-492): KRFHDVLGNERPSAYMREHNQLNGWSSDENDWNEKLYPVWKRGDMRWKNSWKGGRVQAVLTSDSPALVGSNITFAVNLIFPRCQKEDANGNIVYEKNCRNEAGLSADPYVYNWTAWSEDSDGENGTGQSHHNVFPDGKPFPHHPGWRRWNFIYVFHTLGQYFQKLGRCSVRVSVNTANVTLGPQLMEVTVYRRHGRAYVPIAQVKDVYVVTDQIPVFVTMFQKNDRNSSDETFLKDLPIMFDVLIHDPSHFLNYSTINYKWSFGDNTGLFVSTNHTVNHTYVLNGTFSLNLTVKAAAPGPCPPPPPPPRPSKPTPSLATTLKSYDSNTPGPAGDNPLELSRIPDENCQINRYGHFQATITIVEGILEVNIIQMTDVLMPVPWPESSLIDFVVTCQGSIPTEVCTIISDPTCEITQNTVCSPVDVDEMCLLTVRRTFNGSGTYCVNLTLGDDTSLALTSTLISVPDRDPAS

T2: cell membrane-bound GPNMB protein (Homo sapiens, UniProt Q14956)
T2 construct: endogenous in cells; host or cells: UACC-62 and a panel of melanoma lines (A5)
T2 sequence (Q14956 23-572): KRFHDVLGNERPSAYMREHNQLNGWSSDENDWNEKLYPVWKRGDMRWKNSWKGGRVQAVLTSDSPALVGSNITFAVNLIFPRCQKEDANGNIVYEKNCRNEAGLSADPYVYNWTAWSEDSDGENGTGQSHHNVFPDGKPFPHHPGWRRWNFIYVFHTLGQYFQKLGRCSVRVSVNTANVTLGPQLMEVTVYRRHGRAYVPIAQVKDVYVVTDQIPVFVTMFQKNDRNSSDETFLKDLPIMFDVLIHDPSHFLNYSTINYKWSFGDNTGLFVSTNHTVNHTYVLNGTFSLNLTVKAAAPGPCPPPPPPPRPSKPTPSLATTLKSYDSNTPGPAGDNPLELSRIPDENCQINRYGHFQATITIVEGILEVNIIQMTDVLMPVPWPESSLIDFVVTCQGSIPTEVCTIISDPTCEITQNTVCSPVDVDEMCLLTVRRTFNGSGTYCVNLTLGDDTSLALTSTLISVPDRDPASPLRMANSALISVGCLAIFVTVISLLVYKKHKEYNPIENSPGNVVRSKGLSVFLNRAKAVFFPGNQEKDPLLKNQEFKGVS

T3: GPNMB (Homo sapiens, UniProt Q14956)
T3 construct: Tissue sections (5 μm) were cut from formalin fixed and paraffin embedded tissue samples; tissue IMPATH, Los Angeles, Calif; host or cells: normal and tumor human tissue microarrays (melanoma, lung and other carcinomas, skin)
T3 sequence (Q14956 23-572): T2 sequence (Q14956 23-572)

B1: 1.7.1: human anti-GPNMB antibody; VH SEQ ID NO: 56, VL SEQ ID NO: 65 (antibody, listed as Homo sapiens, V domains shown)
VH: QVQLQESGPGLVKPSQTLSLTCTVSGGSISSANYYWTWIRQHPGKGLEWIGYIYYSGSTYCNPSLKSRVIISVDTSKNQFSLKLSSVTAADTAVYYCARGYNWNYFDYWGQGTLVTVSSA
VL: DIVMTQSPATLSVSPGERATLSCRASQSVSSNLAWYQERPGQAPRLLIYGASTRATGIPARFSGSGSGTEFTLTISSLQSEDFAVYYCQQYNKWPPWTFGQGTKVEIER
B2: 1.2.2: human anti-GPNMB antibody; VH SEQ ID NO: 38, VL SEQ ID NO: 47 (antibody, listed as Homo sapiens, V domains shown)
VH: ITLKESGPTLVKPTQTLTLTCTFSGFSLSAGGVGVGWIRQPPGKALEWLALIYWNDDKRYSPSLRSRLTITKDTSKNQVVLTITNMDPVDTATYYCAHSHYDYDWGSYFDYWGQGTLVTVSSA
VL: DIVMTQTPLSLPVTPGEPASISCRSSQSLLDSDDGNTYLDWYLQKPGQSPQLLIYTLSYRASGVPDRFSGSGSGTDFTLNISRVEAEDVGVYYCMQRIEFPITFGQGTRLEIKR
B3: 2.22.1: human anti-GPNMB antibody; VH SEQ ID NO: 164, VL SEQ ID NO: 173 (antibody, listed as Homo sapiens, V domains shown)
VH: QVQLEQSGPGLVKPSQNLSLTCTVSGGSISSGGYFWSWIRQHPGKGLEWIGYIYYSGNTYYNPSLKSRVTISVDTSKNQFSLKLSSVTAADTAVYYCARDYYYDTSGFSYRYDWYYGMDVWGQGTTVTVSSA
VL: DIQLTQSPSSLSASVGDRVTITCRASQGIRNDLGWYQQKPGKAPKRLIYAASSLQNGVPSRFSGSGSGTEFTLTISSLQPEDFATYYCLQHNTYPAFGQGTKVEIKR
B4: 1.10.2: human anti-GPNMB antibody; VH SEQ ID NO: 2, VL SEQ ID NO: 11 (antibody, listed as Homo sapiens, V domains shown)
VH: QVQLQESGPGLVKPSETLSLTCTVSGDSISNYYWSWIRQPPGKGLEWIGYFYYSGSTNYNPSLKSRVTISVDTSKNQFSLKLSSVTAADTAVYYCARDRGWADYWGQGTLVTVSSA
VL: EIVLTQSPGTLSLSPGERATLSCRTSQSISSSYLAWYQQKPGQVPRLLIYGASSRATGIPDRFSGSGSGTDFTLTISRLEPEDFAVYYCQQYGSSITFGQGTRLEIKR

Experiments:
GPNMB [1] = target: T1, GPNMB; experiment: BiaCore 2000 analysis of hybridoma supernatants binding to GPNMB; settings: mAb captured on protein A; GPNMB at 880 nM; 1:1 kinetic model
Experimental: Certain Hybridoma cell supernatants (29) were analyzed for binding to GPNMB by BiaCore® 2000 biosensor equipped with a research-grade CM5 sensor chip. A 1:25 dilution of cell supernatant was passed over a protein A surface for 5 min followed by washing the surface for 10 mins. Subsequently, GPNMB was injected for 90 sec. over the surface at a concentration of 880 nM followed by dissociation. Double-referenced binding data were obtained by subtracting the signal from a control flow cell and subtracting the baseline drift of a buffer injected just prior to the antigen injection. GPNMB binding data for each mAb was normalized for the amount of mAb captured on each surface. Normalized, drift corrected responses were also measured. The sensorgrams were fit to a simple 1:1 kinetic model.

[2] = target: T2, cell membrane-bound GPNMB protein; experiment: FACS analysis of anti-GPNMB antibody binding to melanoma cell lines; settings: primary antibody 1 μg/mL
GPNMB [3] = target: T1, GPNMB; experiment: ELISA of hybridoma supernatants for binding to GPNMB
Experimental: After 14 days of culture, hybridoma supernatants were screened for GPNMB specific monoclonal antibodies. In the Primary screen, the ELISA plates (Fisher, Cat. No. 12-565-136) were coated with 50 μL/well of GPNMB (1 μg/mL) in Coating Buffer (0.1 M Carbonate Buffer, pH 9.6, NaHCO3 8.4 g/L), then incubated at 4° C. overnight. After incubation, the plates were washed with Washing Buffer (0.05% Tween 20 in PBS) three times. 200 μL/well Blocking Buffer (0.5% BSA, 0.1% Tween 20, 0.01% Thimerosal in 1×PBS) were added and the plates were incubated at room temperature for 1 h. After incubation, the plates were washed with Washing Buffer three times. Aliquots (50 μL/well) of hybridoma supernatants and positive and negative controls were added, and the plates were incubated at room temperature for 2 h. The positive control used throughout was serum from the relevant GPNMB immunized XenoMouse® mouse and the negative control was serum from the KLH-immunized relevant strain of XenoMouse® mouse. After incubation, the plates were washed three times with Washing Buffer. 100 μL/well of detection antibody goat anti-huIgGfc-HRP (Caltag, Cat. No. H10507, using concentration was 1:2000 dilution) was added and the plates were incubated at room temperature for 1 hour. After incubation, the plates were washed three times with Washing Buffer. 100 μl/well of TMB (BioFX Lab. Cat. No. TMSK-0100-01) was added, and the plates were allowed to develop for about 10 minutes (until negative control wells barely started to show color). 50 μl/well stop solution (TMB Stop Solution (BioFX Lab. Cat. No. STPR-0100-01) was then added and the plates were read on an ELISA plate reader at a wavelength of 450 nm.
Hybridoma supernatants were screened for binding to GPNMB by ELISA as described above in Example 2.

GPNMB [4] = target: T1, GPNMB; experiment: Binning of antibodies (Luminex competitive binding); settings: three bins of six anti-GPNMB antibodies
Experimental: Certain antibodies, described herein were binned in accordance with the protocol described in U.S. Patent Application Publication No. 20030157730. M×hIgG conjugated beads are prepared for coupling to primary antibody. The volume of supernatant needed is calculated using the following formula: (n+10)×50 μL (where n=total number of samples on plate). Where the concentration is known, 0.5 μg/mL is used. Bead stock is gently vortexed, then diluted in supernatant to a concentration of 2500 of each bead per well or 0.5×10^5/mL and incubated on a shaker in the dark at RT overnight, or 2 hours if at a known concentration of 0.5 μg/mL. Following aspiration, 50 μL of each bead is added to each well of filter plate, then washed once by adding 100 μL/well wash buffer and aspirating. Antigen and controls are added to filter plate 50 μL/well then covered and allowed to incubate in the dark for 1 hour on shaker. Following a wash step, a secondary unknown antibody is added at 50 μL/well using the same dilution (or concentration if known) as is used for the primary antibody. The plates are then incubated in the dark for 2 hours at RT on shaker followed by a wash step. Next, 50 μL/well biotinylated m×hIgG diluted 1:500 is added and allowed to incubate in the dark for 1 hour on shaker at RT. […] Following a wash step, each well is resuspended in 80 μL blocking buffer and read using Luminex. […]

GPNMB [5] = target: T3, GPNMB; experiment: GPNMB immunohistochemistry (IHC) on human tissue microarrays; assay type: binding; settings: normal and tumor human tissue microarrays (lung, ovarian, renal, esophagus, head & neck carcinomas, squamous cell carcinoma, melanomas, normal skin)
Experimental: Anti-GPNMB monoclonal antibodies were evaluated for reactivity with frozen and fixed tissue specimens. Tissue sections (5 μm) were cut from formalin fixed and paraffin embedded tissue samples and were rehydrated through incubations in xylene and a graded ethanol series terminating in PBS. Endogenous peroxidase activity was quenched in a 3% solution of hydrogen peroxide in methanol
Tissue sections were blocked in blocking buffer (5% BSA (Sigma), 1% goat serum (Jackson Immunolabs, West Grove, Pa.) in PBS) for 1 hour. Primary and secondary antibodies were precomplexed in 5% BSA and 1% goat serum in PBS for 1 hour at 37° C. at a molar ratio of approximately 10:1 of anti-GPNMB or control IgG to secondary biotinylated goat anti-human IgG (Jackson Immunolabs). Complexes were blocked with a 1:2000 dilution of human serum and incubated again for 1 hour at 37° C. Tissue sections were incubated with anti-GPNMB antibody or isotype control antibody complexes diluted in blocking buffer for 1 hour. Sections were washed in 3 changes of PBS for 5 to 10 minutes each and incubated with a 1:200 dilution of streptavidin conjugated horseradish peroxidase (Jackson Immunolabs) in blocking buffer for 30 minutes and then washed as before. Antibody was detected using DAB reagent (Vector labs). […]

[6] = TK10 Cells (GPNMB negative control)

| Molecule | ka (GPNMB [1]) [M⁻¹ s⁻¹] | kd (GPNMB [1]) [s⁻¹] | Geo Mean Ratio of anti-GPNMB Staining (relative to pK16) [2, 6] | Geo Mean Ratio of anti-GPNMB Staining (relative to pK16) ([2]; UACC-62 Cells) | Avg OD (GPNMB [3]; antibody at 12.3 ng/mL) | Avg OD (GPNMB [3]; antibody at 37 ng/mL) | Avg OD (GPNMB [3]; antibody at 111 ng/mL) | Avg OD (GPNMB [3]; antibody at 333 ng/mL) | Avg OD (GPNMB [3]; antibody at 1 μg/mL) | Avg OD (GPNMB [3]; antibody at 3 μg/mL) | bin (GPNMB [4]) | IHC staining (GPNMB [5]) |
| --- | --- | --- | --- | --- | --- | --- | --- | --- | --- | --- | --- | --- |
| B1 | 11842 | 0.00144 |  |  |  |  |  |  |  |  |  |  |
| B2 | 9257 | 0.00089 | L. 0.98 | K. 1.24 | 0.049 | 0.094 | 0.199 | 0.356 | 0.499 | 0.763 |  |  |
| B3 |  |  | I. 1.10 | H. 4.46 |  |  |  |  |  |  | Bin 1 | Positive staining |
| B4 | 3955 | 0.000466 |  |  |  |  |  |  |  |  |  |  |
